Ends that are not written are not given here.
Assays:
[1] = tested on: CTGF; assay: Quantitating CTGF in DGC-labelled cells by ICP-MS; format: cell-based
Procedure: After U87MG, SH-SY5Y, and CTX TNA2 cells were imaged by a laser confocal microscopy system, these cells labeled with DGC were quantitatively analyzed by an ICP-MS system (Thermo Elemental X7, USA). Each cell group in the glass vials was digested by adding 5 mL aqua regia (HCl: HNO3 = 3:1) overnight. Subsequently, the aqua regia was heated to evaporate to the last drop to be diluted by a mixture of 2% HNO3 and 1% HCl. A standard curve of Au was made to quantify the concentration of Au in different cells. ICP-MS was used to test the Au signal in triplicates.

[2] = tested on: CTX TNA2 cells; assay: Cytotoxicity of DGC (CCK-8); format: cell-based; parameters: key: viability relative to control cells (control = 1); conditions: 200 μM (Au content), 24 h, CCK-8, normalized to control
[3] = biological target: T1, CTGF (Homo sapiens, UniProt P29279); assay: ICP-MS of Au content in DGC-labelled human brain sections; parameters: The brain tissue samples of autopsy-confirmed AD patients were obtained from the Chinese Brain Bank Center; from tissue; host or cells: postmortem human brain sections (hippocampus, cortex) of AD patients and healthy controls; ICP-MS (Au content): unit not given here
T1 sequence (P29279 27-349): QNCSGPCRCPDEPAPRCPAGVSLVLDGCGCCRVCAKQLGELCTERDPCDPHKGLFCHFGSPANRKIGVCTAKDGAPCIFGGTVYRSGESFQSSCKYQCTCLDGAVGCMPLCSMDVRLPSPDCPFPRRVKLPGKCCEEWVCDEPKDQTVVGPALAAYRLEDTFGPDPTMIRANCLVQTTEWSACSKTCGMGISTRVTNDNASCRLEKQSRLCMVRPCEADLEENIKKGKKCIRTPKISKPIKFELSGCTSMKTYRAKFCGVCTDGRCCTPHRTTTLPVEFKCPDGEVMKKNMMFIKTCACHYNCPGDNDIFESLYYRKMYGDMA
Procedure: The brain tissue samples of autopsy-confirmed AD patients were obtained from the Chinese Brain Bank Center (CBBC) and Human Brain Bank, Central South University Xiangya School of Medicine. First, the brain sections were air-dried for 15 min at room temperature, followed by immersion in water. 5% H2O2 was applied for 15 min at room temperature. The sections were washed three times with PBS for 5 min each time. Then, tissue repair was performed using trypsin at a temperature of 37 °C for 5 min and washed three times with PBS. We chose 10% sheep serum to block for a duration of 20 min at 37°. Primary antibodies (CTGF antibody and Aβ antibody) were added to the sections overnight at 4 °C. FITC-labeled Goat Anti-Rabbit IgG (H + L) (1: dilution 1:200, Bioss, Cat#bs-0370R-FITC) was applied and incubated at 37 °C for 20 min in darkness. Subsequent washing steps involved rinsing the sections three times with PBS, each time lasting for 5 min while avoiding exposure to light. DAPI staining was performed, taking care to store the samples away from light during the 5-min procedure. Then observed by the CLSM system. Then, we chose the optimal incubation concentration of DGC (200 μM) was used to determine the conditions using DAB Horseradish Peroxidase Color Development Kit. After the brain sections were co-stained by DGC (200 μM) at 4 °C overnight, a DAB chromogenic agent was added to the brain tissue sections to explore whether DGC can catalyze DAB solutions to produce insoluble brown precipitate to attach the brain tissue sections with an optical microscope. Finally, the brain tissue sections were digested with aqua regia to measure the Au content by the ICP-MS system.

[4] = biological target: T2, CTGF (Mus musculus, UniProt P29268); assay: In vivo NIR-II imaging of brain after DGC injection; parameters: species or system APP/PS1 and wild-type C57BL/6J mice; conditions: APP/PS1 mice
T2 construct: brain sections of the age-matched wild-type C57BL/6J mice were used as controls; from tissue; host or cells: brain of APP/PS1 transgenic and wild-type C57BL/6J mice (sections, living animal, perfused isolated brain)
T2 sequence (P29268 26-348): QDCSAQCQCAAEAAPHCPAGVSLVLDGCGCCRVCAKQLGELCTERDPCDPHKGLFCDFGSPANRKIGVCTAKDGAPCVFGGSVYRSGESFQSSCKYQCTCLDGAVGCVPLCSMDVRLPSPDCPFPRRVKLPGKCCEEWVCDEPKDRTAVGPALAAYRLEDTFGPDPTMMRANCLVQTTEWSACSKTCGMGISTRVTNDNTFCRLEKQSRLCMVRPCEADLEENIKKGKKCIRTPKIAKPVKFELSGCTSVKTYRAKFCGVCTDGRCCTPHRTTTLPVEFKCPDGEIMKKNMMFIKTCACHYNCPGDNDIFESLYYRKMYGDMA
Procedure: All animal procedures were performed under an approved protocol of the Ethics Committee of Beijing University of Technology, China. Female APP/PS1 mice and age-matched wild-type C57BL/6J mice were shaved before background imaging. For NIR-II imaging in vivo with DGC, the mice (n = 3) were fasted overnight before the experiment and then injected intravenously with DGC (20 mg/kg, 200 μL). NIR-II imaging of the brains was carried out on an In vivo Master (Grand-imaging Technology) equipped with an InGaAs camera C-RED2 (Firstlight) at different time points after injection of DGC (λ ex = 808 nm, 1000 nm longpass (LP) filter (Edmund Optics)). The excitation intensity of the 808 nm laser (Wuhan Grand-imaging Technology) was about […] and the optical images were acquired using an exposure time of 50 ms. Imaging data were analyzed by ImageJ software.

DGC: CTGF-targeting peptide-coated gold nanocluster: one Au26 gold nanocluster coated by eight DAG cyclic peptides, NIR-II and red fluorescence (CDAGRKQKC; also: cyclic peptide, ring not given here, eight peptides on one Au26 nanocluster via Cys Au-S bonds)
ICP-MS DGC (Au) content per cell ([1]; DGC-labelled CTX TNA2 cells, replicate 1): 1.359 | ICP-MS DGC (Au) content per cell ([1]; DGC-labelled CTX TNA2 cells, replicate 2): 1.246 | ICP-MS DGC (Au) content per cell ([1]; DGC-labelled CTX TNA2 cells, replicate 3): 1.418 | ICP-MS DGC (Au) content per cell ([1]; DGC-labelled SH-SY5Y cells, replicate 1): 3.579 | ICP-MS DGC (Au) content per cell ([1]; DGC-labelled SH-SY5Y cells, replicate 2): 3.885 | ICP-MS DGC (Au) content per cell ([1]; DGC-labelled SH-SY5Y cells, replicate 3): 3.913 | ICP-MS DGC (Au) content per cell ([1]; DGC-labelled U87MG cells, replicate 1): 9.5834 | ICP-MS DGC (Au) content per cell ([1]; DGC-labelled U87MG cells, replicate 2): 9.979 | ICP-MS DGC (Au) content per cell ([1]; DGC-labelled U87MG cells, replicate 3): 9.837 | Cell viability ([2]; replicate 1): 1.4709 | Cell viability ([2]; replicate 2): 1.567 | Cell viability ([2]; replicate 3): 1.589 | ICP-MS (Au content) ([3]; AD 1, Cortex section stained with DGC): 16.9799 | ICP-MS (Au content) ([3]; AD 1, Hippocampus section stained with DGC): 24.3713 | ICP-MS (Au content) ([3]; AD 2, Cortex section stained with DGC): 28.448 | ICP-MS (Au content) ([3]; AD 2, Hippocampus section stained with DGC): 30.5308 | Au Content (DGC) per cm^2 by ICP-MS ([3]; Case 1 (healthy control, Thal 0) brain section, section 1): 0.1533 | Au Content (DGC) per cm^2 by ICP-MS ([3]; Case 1 (healthy control, Thal 0) brain section, section 2): 0.3279 | Au Content (DGC) per cm^2 by ICP-MS ([3]; Case 1 (healthy control, Thal 0) brain section, section 3): 0.1558 | Au Content (DGC) per cm^2 by ICP-MS ([3]; Case 2 (healthy control, Thal 0) brain section, section 1): 0.09047 | Au Content (DGC) per cm^2 by ICP-MS ([3]; Case 2 (healthy control, Thal 0) brain section, section 2): 0.265 | Au Content (DGC) per cm^2 by ICP-MS ([3]; Case 2 (healthy control, Thal 0) brain section, section 3): 0.06474 | Au Content (DGC) per cm^2 by ICP-MS ([3]; Case 3 (AD, Thal 1) brain section, section 1): 0.6218 | Au Content (DGC) per cm^2 by ICP-MS ([3]; Case 3 (AD, Thal 1) brain section, section 2): 0.4537 | Au Content (DGC) per cm^2 by ICP-MS ([3]; Case 3 (AD, Thal 1) brain section, section 3): 0.399 | Au Content (DGC) per cm^2 by ICP-MS ([3]; Case 4 (AD, Thal 1) brain section, section 1): 0.5318 | Au Content (DGC) per cm^2 by ICP-MS ([3]; Case 4 (AD, Thal 1) brain section, section 2): 0.7576 | Au Content (DGC) per cm^2 by ICP-MS ([3]; Case 4 (AD, Thal 1) brain section, section 3): 0.7155 | ICP-MS (Au content) ([3]; HC 1, Cortex section stained with DGC): 3.7846 | ICP-MS (Au content) ([3]; HC 1, Hippocampus section stained with DGC): 2.83 | ICP-MS (Au content) ([3]; HC 2, Cortex section stained with DGC): 3.7846 | ICP-MS (Au content) ([3]; HC 2, Hippocampus section stained with DGC): 11.6586 | NIR-II fluorescence in the brains ([4]; 24 h after injection): still observed | time of peak brain NIR-II signal ([4]; after tail vein injection of DGC): 4 h
